From US20030232325A1 (MOUNT SINAI SCHOOL OF MEDICINE OF NEW YORK UNIVERSITY, published 2003)

B1: gstRabM69 (gst fused to amino acids 1-69 of the rabies virus M protein) (other)
chain: MNLLRKIVKNRRDEDTQKSSPASAPLDDDDLWLPPPEYVPLKELTGKKNMRNFCINGRVKVCSPNGYSF
B2: gstRabM202 (gst fused to amino acids 1-202, full-length, of the rabies virus M protein) (other)
chain: MNLLRKIVKNRRDEDTQKSSPASAPLDDDDLWLPPPEYVPLKELTGKKNMRNFCINGRVKVCSPNGYSFRILRHILKSFDEIYSGNHRMIGLVKVVIGLALSGSPVPEGLNWVYKLRRTFIFQWADSRGPLEGEELEYSQEITWDDDTEFVGLQIRVIAKQCHIQGRVWCINMNPRACQLWSDMSLQTQRSEEDKDSSLLLE
B3: gstRabM52WT (gst fused to amino acids 1-52, wild type, of the rabies virus M protein) (other)
chain: MNLLRKIVKNRRDEDTQKSSPASAPLDDDDLWLPPPEYVPLKELTGKKNMRN
B4: gstVSVM74WT (gst fused to the N-terminal 74 amino acids of VSV (Ind.) M protein, wild type PY motif) (other)
chain: MSSLKKILGLKGKGKKSKKLGIAPPPYEEDTSMEYAPSAPIDKSYFGVDEMDTYDPNQLRYEKFFFTVKMTVRS

Key:
[1] = molecular target: T1, gst alone (glutathione-S-transferase expressed from pGEX-2TK) (UniProt P08515 1-218 = GST); assay: far-western blot, 32P-labelled gst probe
T1 sequence (P08515 whole entry): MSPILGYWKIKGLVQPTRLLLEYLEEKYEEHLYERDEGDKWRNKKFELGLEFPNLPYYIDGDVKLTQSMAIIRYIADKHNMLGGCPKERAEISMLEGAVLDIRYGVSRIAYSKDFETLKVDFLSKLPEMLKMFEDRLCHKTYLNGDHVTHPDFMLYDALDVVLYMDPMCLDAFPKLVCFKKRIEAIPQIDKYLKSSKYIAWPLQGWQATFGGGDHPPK

[2] = molecular target: VSV M protein (form used not stated; discussion of Example 9, data not shown) (vesicular stomatitis virus, UniProt P03519 1-229); assay: far-western blot presumably; data not shown
[3] = molecular target: T1, gst alone (glutathione-S-transferase …); assay: far-western blot, 32P-labelled gst probe on bacterial extract

Binder | binding result [1] | other results
B1 | no binding | 
B2 | no binding | 
TGLPTPWTVRYSKSKKREYFFNPETKHSQWEEPEG (other, domain: WW) [WW domain from ESS 1] |  | binding result [2]: no binding
B3 | no binding | 
B4 |  | binding result [3]: no binding
